The results in this text go back to patent US9404087B2, “Insulin producing cells derived from pluripotent stem cells” (Kadimastem Ltd., priority 2010, dated 2016).

What all share (assay type): cell-based
Test [1] concerns human ES cells. The test is described as follows: Indirect immunofluorescence of definitive endoderm markers after Activin A treatment. The protocol:
On day one, three wells of human ES cell colonies (grown on Corning 6×well plate for 4 days) detached by collagenase were collected into a 15 ml tube, and colonies washed twice by low speed centrifugation in differentiation medium A (DMEM/F12, 2% KOSR, 2 mM glutmine, 1×NEAA, 100 μM βMEtOH, 1 mM NaPyruvate and penicillin and streptomycin (PS)).
After all the hES clusters had been collected and washed, the clusters were suspended in 1.5 ml/well of differentiation medium A1, (i.e. differentiation medium A including 100 ng/ml recombinant human Activin A (Preprotech) and 25 ng/ml recombinant Wnt 3 (R&D), 2% knock-out serum replacement and 2 mg/ml bovine serum albumin (BSA, cell culture tested SIGMA)). 450-500 colonies/well were seeded in Costar 6×well plates which had been coated with 0.1% porcine gelatin (Sigma) 1 day before. Alternatively, about 3000 colonies were seeded on 10 cm diameter plates. Plates were left in the incubator (37° C., 5% CO2) for 2 days without medium change.
On day 3, the medium was changed to differentiation medium A2 (DMEM/F12, 2% KOSR, 2 mM glut, 1×NEAA, 100 μM βMEtOH, 1 mM NaPyr and 2% Fetal Calf Serum (FCS)) containing 100 ng/ml Activin A and 2 mg/ml BSA. At this stage, clusters still floated and many single cells were visible. The plates were tilted so that clusters fell to the bottom edge of the well and the old medium was removed leaving clusters in 300 μl medium that is completed with 1.2 ml of medium A2. The collected culture medium that contained a few clusters was centrifuged at 900 rpm for 5 minutes. The pellet was re-suspended in 1.5 ml medium A2 and added to one of the wells. On day 4, most clusters adhered to the plate and the culture medium was changed similarly as on day 3, to differentiation medium A3 (DMEM/F12, 2 mM glutamine, 1×NEAA, 100 μM βMEtOH, 1 mM NaPyr but with 0.2% FCS) that contained 100 ng/ml Activin A and 2 mg/ml BSA. Cells were left in the medium A3 for 2 days.
Cells were fixed (4% paraformaldehyde in Ca^2+ and Mg^2+ free PBS for 20 minutes), washed ×3 with PBS and blocked with 10% horse serum in PBS. The reaction with the primary antibody (Ab) was performed in 10% horse serum with or without 1% BSA. Secondary antibodies (Either donkey anti mouse; donkey anti rabbit; donkey or rabbit anti-goat that are conjugated with fluorescent tags, Alexa 488 or Alexa 566 (Molecular Probes/Invitrogen) or with Cy3/donkey anti rabbit DyLight 488 (Jackson laboratories). Pictures were taken with a CCD camera and processed with an imaging program. Mouse monoclonal anti Sox17 Ab (R&D) 10 μg/ml was used with 0.1% Triton X100. Rabbit polyclonal anti FoxA2 (ab40874) (Abcam) was used at the dilution of 1/1000 with 0.1% Triton X100.

Test [2] deals with Human insulin mRNA. The test is described as follows: Human insulin mRNA by RT-qPCR with TBP as reference. As to the method:
(§1) Aliquots of the Presort culture and of EpCAM-MACS-separated fractions (from step 7), as well as of re-aggregated clusters (step 8) were analyzed. The number of cells was counted, using the Nucleocounter. After centrifugation at 350×g for 5 minutes, cell pellets were dissolved in M-PER (Mammalian protein extraction reagent, Pierce), typically using 0.1 ml M-PER for 2 million cells, and content of human insulin C-peptide was measured with an ELISA kit (Mercodia, Upsalh, Sweden, ultrasensitive c-peptide kit (minimal detection 5 pM) or Mercodia c-peptide ELISA (minimal detection 90 pM). Samples in M-PER were diluted 3 fold, or more in the kit buffer, and 20 μl of the ⅓ dilution were assayed. Results were expressed per mg total protein (as measured by Bradford assay) and per million cells (counted in a NucleoCounter). Other cell pellets were suspended in 0.7 ml buffer RLT (RNAeasy, Qiagen) per million cells, for RNA extraction. Human insulin mRNA was quantitated by RT-qPCR (Taq-Man, Applied Biosystems, Step One) using the TATA binding protein (TBP) gene as reference. In the same way, proteins and RNA were extracted from entire plates after scraping the cells with a rubber policeman.
Differentiation of hES cells towards a pancreatic lineage: The hES cell cultures were differentiated as detailed in Example 5 and FIG. 15, steps 1-8, and RNA extracted at different steps was subjected to RT-qPCR.
Human ES cells were differentiated according to the scheme illustrated in FIG. 22. Two modifications were made in the procedure detailed in Example 5. Thus, in step 2 and 3, the fetal calf serum was replaced by serum replacement (KOSR, Invitrogen), at the same concentrations (i.e. 2% in step 2, 0.2% in step 3). In addition, in step 5, Noggin (Preprotech) was added at 100 ng/ml. The EpCAM-MACS fractionation was performed as in Example 5.
(Quantitative PCR measures a nucleic acid by following its amplification.)

The test system of test [3] is human insulin C-peptide. The test is described as follows: Content of human insulin C-peptide by ELISA in cell fractions. As to the method:
On day 20, the medium used in step III of Example 2 was modified to adjust the glucose concentration to 5.5 mM (referred to herein as DM7). For isolation of EpCAM^+ cells by magnetic cell sorting (MACS technology, Miltenyi Biotec), a 10 cm-diameter plate was washed with PBS^−/− (no Ca^++, no Mg^++). Cells were then dissociated by treatment with Accutase (Stempro, 2.5 ml/10 cm plate), for 10 minutes at 37° C., and pipetting up and down. The cells were collected in DM7 and an aliquot counted in a NucleoCounter (New Brunswick). Cells were centrifuged at 1,500 rpm (350×g) for 5 minutes and re-suspended in MACS buffer (PBS^−/− with 0.5% BSA, 2 mM EDTA), using 0.3 ml for 50 million cells. Magnetic beads conjugated to anti-EpCAM antibodies (Miltenyi Biotec—CD326 pluripotent stem cells microbeads) were added (0.1 ml beads for 50 million cells). After 30 minutes at 4° C., the cells were washed once in 50 ml of MACS buffer, centrifuged, and finally re-suspended in 0.5 ml MACS buffer (for a maximum of 10^8 cells). […]
as §1, with “Other cell pellets were suspended in 0.7 ml buffer RLT (RNAeasy, Qiagen) per million cells, for RNA extraction.” left out, “In the same way, proteins and RNA were extracted from entire plates after scraping the cells with a rubber policeman.” left out

The mark [4] stands for this setting: five days Activin A conditioning, positive nuclei relative to DAPI nuclei (FIG. 1).

B1: Activin A: recombinant human Activin A (Preprotech), 100 ng/ml (protein, UniProt P08476 311-426, looked up)
Inhibin beta A chain: GLECDGKVNICCKKQFFVSFKDIGWNDWIIAPSGYHANYCEGECPSHIAGTSGSSLSFHSTVINHYRMRGHSPFANLKSCCVPTKLRPMSMLYYDDGQNIIKKDIQNMIVEECGCS
modifications: Inhibin beta A chain
In the case of B1, the “cells anti Oct4 positive” value in test [1] (end of 5 days of Activin A treatment) is listed as 5%. Moreover, the “cells expressing Sox17 and/or FoxA2” value in test [1] (end of 5 days of Activin A treatment, 100 ng/ml) is recorded as “about 75%”. For the same molecule, in test [1] (setting [4]), the “yield of cells expressing FoxA2” value was 89% and the “yield of cells expressing Sox17” value was 98%.

B2: Noggin: Noggin (Preprotech) added at 100 ng/ml in step 5 (protein, UniProt Q13253 28-232, looked up)
Noggin: QHYLHIRPAPSDNLPLVDLIEHPDPIFDPKEKDLNETLLRSLLGGHYDPGFMATSPPEDRPGGGGGAAGGAEDLAELDQLLRQRPSGAMPSEIKGLEFSEGLAQGKKQRLSKKLRRKLQMWLWSQTFCPVLYAWNDLGSRFWPRYVKVGSCFSKRSCSVPEGMVCKPSKSVHLTVLRWRCQRRGGQRCGWIPIQYPIISECKCSC
With B2, the “Ratio Insulin mRNA over TBP mRNA” value in test [2] (Table 5 Expt 1, D 19 (EpCAM+)) came out at 0.7; in test [2] (Table 5 Expt 1, D 19 (Presort)) it was 0.6; in test [2] (Table 5 Expt 1, D 23 (EpCAM+)) it was 0.7. Besides, the “Insulin C-peptide” value stood at 8.15 ng/mg protein in test [3] (Table 4 Expt 1, D 19 (EpCAM+)); 2.9 ng/mg protein in test [3] (Table 4 Expt 1, D 19 (Presort)); 17.5 ng/mg protein in test [3] (Table 4 Expt 1, D 23 (EpCAM+)).
